In patent US20220213181A1 (Novartis, published 2022):
“And” between values parts separate entries of the source, which are not always exact repeats. Equal entries are not always repeated.

Tests used:
Experiment in all cases: Octet (ForteBio) kinetics, biotinylated antigen on streptavidin sensor, IgG in solution
[1] = molecular target: T1, Mouse ANGPTL4(26-410)-FLAG-His6-Avi (mouse, UniProt Q9Z1P8 24-410, biotin on the C-terminal Avi tag (BirA) where the protein is immobilised)
T1 sequence: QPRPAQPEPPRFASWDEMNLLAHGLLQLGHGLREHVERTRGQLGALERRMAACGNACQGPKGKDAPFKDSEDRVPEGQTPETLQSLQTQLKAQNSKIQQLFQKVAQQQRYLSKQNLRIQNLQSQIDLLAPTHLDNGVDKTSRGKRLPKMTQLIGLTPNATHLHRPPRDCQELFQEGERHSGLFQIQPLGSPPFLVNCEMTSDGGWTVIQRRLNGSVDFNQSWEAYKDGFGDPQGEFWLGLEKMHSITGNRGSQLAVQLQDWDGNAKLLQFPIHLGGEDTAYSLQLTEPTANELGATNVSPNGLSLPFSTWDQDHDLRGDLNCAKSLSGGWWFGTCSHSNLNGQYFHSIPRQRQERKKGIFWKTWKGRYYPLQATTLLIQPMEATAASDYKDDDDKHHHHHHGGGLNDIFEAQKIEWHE

[2] = molecular target: T2, Human ANGPTL4(26-161)-FLAG-His6-Avi (human, biotin on the C-terminal Avi tag (BirA) where the protein is immobilised)
T2 construct: also called human ANGPTL4 N-terminal coiled coil domain; hANGPTL4-CCD
T2 chain: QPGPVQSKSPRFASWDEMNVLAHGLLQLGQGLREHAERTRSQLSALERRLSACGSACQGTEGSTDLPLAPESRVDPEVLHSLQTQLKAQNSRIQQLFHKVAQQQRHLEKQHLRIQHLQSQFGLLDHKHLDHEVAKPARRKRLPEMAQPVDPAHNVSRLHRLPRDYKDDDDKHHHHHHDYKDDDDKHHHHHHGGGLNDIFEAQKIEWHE

[3] = molecular target: T3, Cynomolgus monkey ANGPTL4(26-406)-FLAG-His6-Avi (cynomolgus monkey, biotin on the C-terminal Avi tag (BirA) where the protein is immobilised)
T3 construct: also called Cyno ANGPTL4 (26-406)
T3 chain: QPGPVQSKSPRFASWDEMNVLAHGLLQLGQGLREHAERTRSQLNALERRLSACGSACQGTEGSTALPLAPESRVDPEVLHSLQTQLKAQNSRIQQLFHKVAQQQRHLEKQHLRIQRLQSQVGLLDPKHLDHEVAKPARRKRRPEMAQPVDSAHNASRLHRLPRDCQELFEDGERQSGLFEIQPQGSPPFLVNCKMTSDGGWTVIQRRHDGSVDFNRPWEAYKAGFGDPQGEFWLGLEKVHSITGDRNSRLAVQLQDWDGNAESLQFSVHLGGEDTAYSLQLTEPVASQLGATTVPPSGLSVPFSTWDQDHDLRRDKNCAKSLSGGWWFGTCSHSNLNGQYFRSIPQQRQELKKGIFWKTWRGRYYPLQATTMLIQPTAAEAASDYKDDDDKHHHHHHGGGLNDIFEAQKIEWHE

[4] = molecular target: T4, Cynomolgus monkey ANGPTL4(26-161)-FLAG-His6-Avi (cynomolgus monkey, biotin on the C-terminal Avi tag (BirA) where the protein is immobilised)
T4 construct: also called Cyno ANGPTL4 (26-161)
T4 chain: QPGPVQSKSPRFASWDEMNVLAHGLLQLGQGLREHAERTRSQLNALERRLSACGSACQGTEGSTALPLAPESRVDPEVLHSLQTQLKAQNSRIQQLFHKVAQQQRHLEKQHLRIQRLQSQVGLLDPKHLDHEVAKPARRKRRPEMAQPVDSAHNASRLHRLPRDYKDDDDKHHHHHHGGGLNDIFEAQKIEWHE

[5] = molecular target: T5, Rat ANGPTL4(24-405)-FLAG-His6-Avi (rat, UniProt Q6TMA8 24-405, biotin on the C-terminal Avi tag (BirA) where the protein is immobilised)
T5 sequence: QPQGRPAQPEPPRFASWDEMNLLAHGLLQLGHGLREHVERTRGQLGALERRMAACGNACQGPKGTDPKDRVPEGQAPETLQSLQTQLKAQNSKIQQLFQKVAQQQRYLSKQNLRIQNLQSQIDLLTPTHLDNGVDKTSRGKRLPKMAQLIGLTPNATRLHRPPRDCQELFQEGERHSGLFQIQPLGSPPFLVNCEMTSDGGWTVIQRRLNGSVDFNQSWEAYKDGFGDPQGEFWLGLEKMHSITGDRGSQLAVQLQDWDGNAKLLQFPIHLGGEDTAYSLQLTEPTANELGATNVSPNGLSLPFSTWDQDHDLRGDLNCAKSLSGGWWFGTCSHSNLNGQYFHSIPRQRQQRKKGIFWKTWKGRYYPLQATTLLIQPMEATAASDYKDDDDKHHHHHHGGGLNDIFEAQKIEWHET

[6] = molecular target: T6, Human ANGPTL4(26-406)-FLAG-His6-Avi (human, UniProt Q9BY76 24-406, biotin on the C-terminal Avi tag (BirA) where the protein is immobilised)
T6 construct: the text calls it 20 amino acids), then QP, ANGPTL4 26-406 and FLAG-His6-Avi; the signal peptide is left out here; also called full length human ANGPTL4; hANGPTL4
T6 sequence: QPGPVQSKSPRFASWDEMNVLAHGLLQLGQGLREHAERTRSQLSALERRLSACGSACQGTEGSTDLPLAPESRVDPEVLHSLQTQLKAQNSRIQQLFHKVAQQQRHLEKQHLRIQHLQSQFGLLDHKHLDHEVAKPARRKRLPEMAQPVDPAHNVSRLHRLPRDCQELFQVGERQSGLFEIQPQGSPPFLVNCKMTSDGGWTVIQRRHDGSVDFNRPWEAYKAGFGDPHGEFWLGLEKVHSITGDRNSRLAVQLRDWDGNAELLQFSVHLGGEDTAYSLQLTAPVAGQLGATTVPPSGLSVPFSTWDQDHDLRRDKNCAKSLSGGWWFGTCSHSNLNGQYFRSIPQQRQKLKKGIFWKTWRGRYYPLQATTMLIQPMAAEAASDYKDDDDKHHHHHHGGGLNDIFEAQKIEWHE

B1: NEG276-LALA (antibody, human IgG1, kappa, L234A L235A)
heavy: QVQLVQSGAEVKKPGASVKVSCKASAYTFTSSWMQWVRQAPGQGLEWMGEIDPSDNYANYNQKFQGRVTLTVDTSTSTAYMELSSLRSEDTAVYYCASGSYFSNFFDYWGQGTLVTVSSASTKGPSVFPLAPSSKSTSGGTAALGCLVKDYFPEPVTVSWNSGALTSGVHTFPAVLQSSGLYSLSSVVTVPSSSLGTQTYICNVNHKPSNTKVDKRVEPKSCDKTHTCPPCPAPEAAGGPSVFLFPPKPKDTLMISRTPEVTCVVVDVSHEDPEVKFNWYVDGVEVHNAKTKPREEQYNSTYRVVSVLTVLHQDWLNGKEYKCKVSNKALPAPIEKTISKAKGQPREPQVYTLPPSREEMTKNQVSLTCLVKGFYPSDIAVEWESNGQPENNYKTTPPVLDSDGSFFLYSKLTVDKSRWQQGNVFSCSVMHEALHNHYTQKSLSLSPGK
light: EIVMTQSPATLSVSPGERATLSCKASQDIGSNLNWLQQKPGQAPRRLIYAVSNRGPGIPARFSGSRSGSEYTLTISSLQSEDFAVYYCLQYASSPWTFGQGTKVEIKRTVAAPSVFIFPPSDEQLKSGTASVVCLLNNFYPREAKVQWKVDNALQSGNSQESVTEQDSKDSTYSLSSTLTLSKADYEKHKVYACEVTHQGLSSPVTKSFNRGEC
- Kd [1]: 4.15 nM
- Kd [2]: ≤ 0.023 nM and 0.052 nM
- koff [2]: 9.2e-06 s⁻¹
- kon [2]: 220000 M⁻¹ s⁻¹ and 180000 M⁻¹ s⁻¹
- Kd [3]: 0.015 nM and ≤ 0.014 nM
- koff [3]: 5.4e-06 s⁻¹
- kon [3]: 360000 M⁻¹ s⁻¹ and 370000 M⁻¹ s⁻¹
- koff [4]: 6.4e-06 s⁻¹ and 1.7e-05 s⁻¹
- kon [4]: 270000 M⁻¹ s⁻¹ and 190000 M⁻¹ s⁻¹
- Kd [5]: 6.03 nM
- Kd [6]: 0.014 nM and 0.017 nM and ≤ 0.012 nM and 0.01 nM
- koff [6]: 5.9e-06 s⁻¹ and 6e-06 s⁻¹ and 7e-06 s⁻¹
- kon [6]: 410000 M⁻¹ s⁻¹ and 360000 M⁻¹ s⁻¹ and 430000 M⁻¹ s⁻¹ and 680000 M⁻¹ s⁻¹
